# In US20250304919A1 (MASSEY VENTURES, published 2025):
# B1: BSFnano711G8FnB2 nanorods displaying the FnB-pIII fusion (fibronectin-binding repeats of Streptococcus pyogenes serum opacity factor Sof22 fused to pIII) (other)
# chain: AAQPAGGHGPIVDIVEDTGTGVEGGAQNGVVSTQENKDPIVDITEDTQPGMSGSNDATVVEEDTTPQRPDVLVGGQSDPIDITEDTQPGMSGSNDATVVEEDTVPKRPDILVGGQSDPIDITEDTQPGMSGSNDATVIEEDTKPKRFFHFDNEAAAPGGAETVESCLAKPHTENSFTNVWKDDKTLDRYANYEGCLWNATGVVVCTGDETQCYGTWVPIGLAIPENEGGGSEGGGSEGGGSEGGGTKPPEYGDRPIPGYTYINPLDGTYPPGTEQNPANPNPSLEESQPLNTFMFQNNRFRNRQGALTVYTGTVTQGTDPVKTYYQYTPVSSKAMYDAYWNGKFRDCAFHSGFNEDPFVCEYQGQSSDLPQPPVNAGGGSGGGSGGGSEGGGSEGGGSEGGGSEGGGSGGGSGSGDFDYEKMANANKGAMTENADENALQSDAKGKLDSVATDYGAAIDGFIGDVSGLANGNGATGDFAGSNSQMAQVGDGDNSPLMNNFRQYLPSLPQSVECRPFVFGAGKPYEFSIDCDKINLFRGVFAFLLYVATFMYVFSTFANILRNKES
# Molecular target: T1, human fibronectin (human, UniProt P02751 32-2477)
# T1 construct: also called Fn; analyte
# Test: lateral flow dipstick; reference LOD of 6.4 ng/mL is cited from the literature
# T1 sequence (P02751 32-2477 limits assumed): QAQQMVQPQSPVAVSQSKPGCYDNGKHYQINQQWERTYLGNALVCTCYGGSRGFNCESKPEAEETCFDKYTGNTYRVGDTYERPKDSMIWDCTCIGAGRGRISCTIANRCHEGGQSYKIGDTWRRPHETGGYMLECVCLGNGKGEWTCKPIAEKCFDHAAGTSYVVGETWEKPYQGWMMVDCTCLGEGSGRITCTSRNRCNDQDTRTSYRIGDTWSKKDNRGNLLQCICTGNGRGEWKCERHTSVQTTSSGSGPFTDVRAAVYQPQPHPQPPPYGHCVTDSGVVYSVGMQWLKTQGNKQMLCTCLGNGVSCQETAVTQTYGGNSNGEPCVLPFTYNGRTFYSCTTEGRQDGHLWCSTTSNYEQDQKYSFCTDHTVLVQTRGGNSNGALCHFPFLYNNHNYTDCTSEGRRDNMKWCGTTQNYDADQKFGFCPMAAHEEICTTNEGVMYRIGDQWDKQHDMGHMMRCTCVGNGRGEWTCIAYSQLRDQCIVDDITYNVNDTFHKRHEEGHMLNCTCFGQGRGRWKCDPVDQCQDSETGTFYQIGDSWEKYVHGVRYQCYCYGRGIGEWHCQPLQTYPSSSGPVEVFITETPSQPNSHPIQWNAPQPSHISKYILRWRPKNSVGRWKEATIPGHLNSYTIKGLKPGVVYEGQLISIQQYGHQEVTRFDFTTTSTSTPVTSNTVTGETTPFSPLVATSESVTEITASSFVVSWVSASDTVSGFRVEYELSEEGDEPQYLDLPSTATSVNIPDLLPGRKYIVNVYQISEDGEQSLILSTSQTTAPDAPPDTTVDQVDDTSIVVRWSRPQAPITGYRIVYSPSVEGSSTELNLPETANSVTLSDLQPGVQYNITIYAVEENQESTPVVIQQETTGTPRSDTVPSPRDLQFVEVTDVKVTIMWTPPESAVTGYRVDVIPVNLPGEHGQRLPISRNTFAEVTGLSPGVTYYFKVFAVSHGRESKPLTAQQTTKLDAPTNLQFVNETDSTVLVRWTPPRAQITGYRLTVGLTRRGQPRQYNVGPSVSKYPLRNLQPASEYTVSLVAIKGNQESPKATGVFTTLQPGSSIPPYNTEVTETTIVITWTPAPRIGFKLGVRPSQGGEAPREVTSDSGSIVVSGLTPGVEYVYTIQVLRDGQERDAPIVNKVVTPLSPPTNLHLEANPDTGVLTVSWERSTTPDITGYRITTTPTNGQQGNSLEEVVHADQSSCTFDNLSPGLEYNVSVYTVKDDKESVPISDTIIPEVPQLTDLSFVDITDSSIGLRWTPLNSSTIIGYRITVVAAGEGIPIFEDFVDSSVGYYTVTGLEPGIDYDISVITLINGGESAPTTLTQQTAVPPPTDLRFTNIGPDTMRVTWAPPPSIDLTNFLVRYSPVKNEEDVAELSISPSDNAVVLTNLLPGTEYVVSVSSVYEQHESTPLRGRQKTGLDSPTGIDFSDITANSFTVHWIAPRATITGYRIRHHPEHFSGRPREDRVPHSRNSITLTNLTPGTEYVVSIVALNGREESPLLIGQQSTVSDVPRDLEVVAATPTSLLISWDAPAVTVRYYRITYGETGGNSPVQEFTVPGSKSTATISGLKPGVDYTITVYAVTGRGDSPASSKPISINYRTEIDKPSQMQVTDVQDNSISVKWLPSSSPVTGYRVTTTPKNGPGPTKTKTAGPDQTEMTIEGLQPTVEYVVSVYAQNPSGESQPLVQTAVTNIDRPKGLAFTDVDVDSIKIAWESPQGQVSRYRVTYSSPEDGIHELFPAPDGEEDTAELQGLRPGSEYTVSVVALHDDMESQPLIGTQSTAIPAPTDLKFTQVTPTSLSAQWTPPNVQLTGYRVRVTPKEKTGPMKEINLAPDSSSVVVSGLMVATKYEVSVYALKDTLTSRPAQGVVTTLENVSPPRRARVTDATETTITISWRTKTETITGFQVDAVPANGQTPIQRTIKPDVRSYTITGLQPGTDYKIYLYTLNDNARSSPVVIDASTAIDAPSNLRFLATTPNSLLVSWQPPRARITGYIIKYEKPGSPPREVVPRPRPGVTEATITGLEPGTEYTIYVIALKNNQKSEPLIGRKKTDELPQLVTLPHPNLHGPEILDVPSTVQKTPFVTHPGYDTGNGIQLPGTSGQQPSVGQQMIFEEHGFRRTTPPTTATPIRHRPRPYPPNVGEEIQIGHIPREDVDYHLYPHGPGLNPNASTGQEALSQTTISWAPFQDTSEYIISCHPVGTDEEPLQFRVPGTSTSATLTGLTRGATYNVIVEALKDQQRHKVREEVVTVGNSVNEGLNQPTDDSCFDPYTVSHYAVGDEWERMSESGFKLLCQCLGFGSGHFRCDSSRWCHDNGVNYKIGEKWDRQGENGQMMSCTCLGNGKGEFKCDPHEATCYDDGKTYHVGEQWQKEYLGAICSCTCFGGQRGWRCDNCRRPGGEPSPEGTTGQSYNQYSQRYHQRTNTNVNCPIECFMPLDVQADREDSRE
binder,measurement,value
B1,"fold improvement of LOD against FnB nanorods of the phage system (Sattar et al., 2015)",160 fold
